Assays:
[1] = test system: PIP4K2A G131L Y138F (kinase dead) (Homo sapiens); assay: EMSA; conditions: EMSA 60 min 16 C, 5 ug yeast tRNA, 40 U RNase inhibitor; fluorescent: 500 mM NaCl, 10 mM Tris pH 7.5, 10% glycerol; radioactive: 30 mM KCl, 1 mM MgCl2, 40 mM …
[2] = test system: PIP4K2A (WT) (Homo sapiens); assay: EMSA; conditions: EMSA 60 min 16 C, 5 ug yeast tRNA, 40 U RNase inhibitor; fluorescent: 500 mM NaCl, 10 mM Tris pH 7.5, 10% glycerol; radioactive: 30 mM KCl, 1 mM MgCl2, 40 mM …

| Substance | Kd [1] | Kd [2] |
| --- | --- | --- |
| RAD51-short (5' proximal 35 bases of RAD51 3'UTR) | 850 nM | 500 nM |
| RAD51 3'UTR |  | 750 nM |

Reference: publication PMC8194828
